Test results published in the MegaScale stability set (Tsuboyama et al. 2023).

B1: 2K2A (parent)
chain: ELREAFRLYDKEGNGYISTDVMREILAELDETLSSEDLDAMIDEIDADGSGTVDFEEFMGVMT

Variants of: B1
Assay: folding stability dG (cDNA display proteolysis); higher = more stable
Conditions: PBS, room temperature

Row | Variant | folding stability dG [kcal/mol]
1 | ELREAFRLYDKEGNGYISTDVMREILAELDETLSSEDLDAHIDEIDADGSGTVDFEEFMGVMT [M41H] | 0.645
2 | ELREAFRLYDKEGNGYISTDVMREILAELDETLSSEDLDAVIDEIDADGSGTVDFEEFMGVMT [M41V] | 1.21
3 | ELREAFRLYDKEGNGYISTDVMREILAELDETLSSEDLDATIDEIDADGSGTVDFEEFMGVMT [M41T] | 0.556
4 | ELREAFRLYDKEGNGYISTDVMREILAELDETLSSEDLDAFIDEIDADGSGTVDFEEFMGVMT [M41F] | 1.5
5 | ELREAFRLYDKEGNGYISTDVMREILAELDETLSSEDLDALIDEIDADGSGTVDFEEFMGVMT [M41L] | 2.03
6 | ELREAFRLYDKEGNGYISTDVMREILAELDETLSSEDLDAKIDEIDADGSGTVDFEEFMGVMT [M41K] | 1.49
7 | ELREAFRLYDKEGNGYISTDVMREILAELDETLSSEDLDAQIDEIDADGSGTVDFEEFMGVMT [M41Q] | 0.887
8 | ELREAFRLYDKEGNGYISTDVMREILAELDETLSSEDLDAIIDEIDADGSGTVDFEEFMGVMT [M41I] | 1.86
9 | ELREAFRLYDKEGNGYISTDVMREILAELDETLSSEDLDASIDEIDADGSGTVDFEEFMGVMT [M41S] | 0.166
10 | ELREAFRLYDKEGNGYISTDVMREILAELDETLSSEDLDAGIDEIDADGSGTVDFEEFMGVMT [M41G] | 0.01
11 | ELREAFRLYDKEGNGYISTDVMREILAELDETLSSEDLDADIDEIDADGSGTVDFEEFMGVMT [M41D] | -0.547
12 | ELREAFRLYDKEGNGYISTDVMREILAELDETLSSEDLDARIDEIDADGSGTVDFEEFMGVMT [M41R] | 1.47
13 | ELREAFRLYDKEGNGYISTDVMREILAELDETLSSEDLDAPIDEIDADGSGTVDFEEFMGVMT [M41P] | -0.862
14 | ELREAFRLYDKEGNGYISTDVMREILAELDETLSSEDLDANIDEIDADGSGTVDFEEFMGVMT [M41N] | -0.4
15 | ELREAFRLYDKEGNGYISTDVMREILAELDETLSSEDLDAEIDEIDADGSGTVDFEEFMGVMT [M41E] | -0.173
16 | ELREAFRLYDKEGNGYISTDVMREILAELDETLSSEDLDAYIDEIDADGSGTVDFEEFMGVMT [M41Y] | 1.61
17 | ELREAFRLYDKEGNGYISTDVMREILAELDETLSSEDLDAWIDEIDADGSGTVDFEEFMGVMT [M41W] | 2.43
18 | ELREAFRLYDKEGNGYISTDVMREILAELDETLSSEDLDAMIDKIDADGSGTVDFEEFMGVMT [E44K] | 2.14
19 | ELREAFRLYDKEGNGYISTDVMREILAELDETLSSEDLDAMIDFIDADGSGTVDFEEFMGVMT [E44F] | 2.17
20 | ELREAFRLYDKEGNGYISTDVMREILAELDETLSSEDLDAMIDCIDADGSGTVDFEEFMGVMT [E44C] | 2.19
21 | ELREAFRLYDKEGNGYISTDVMREILAELDETLSSEDLDAMIDLIDADGSGTVDFEEFMGVMT [E44L] | 2.19
22 | ELREAFRLYDKEGNGYISTDVMREILAELDETLSSEDLDAMIDNIDADGSGTVDFEEFMGVMT [E44N] | 1.95

Row | Variant | folding stability dG [kcal/mol]
23 | ELREAFRLYDKEGNGYISTDVMREILAELDETLSSEDLDAMIDHIDADGSGTVDFEEFMGVMT [E44H] | 2.06
24 | ELREAFRLYDKEGNGYISTDVMREILAELDETLSSEDLDAMIDDIDADGSGTVDFEEFMGVMT [E44D] | 1.76
25 | ELREAFRLYDKEGNGYISTDVMREILAELDETLSSEDLDAMIDGIDADGSGTVDFEEFMGVMT [E44G] | 1.85
26 | ELREAFRLYDKEGNGYISTDVMREILAELDETLSSEDLDAMIDWIDADGSGTVDFEEFMGVMT [E44W] | 2.19
27 | ELREAFRLYDKEGNGYISTDVMREILAELDETLSSEDLDAMIDMIDADGSGTVDFEEFMGVMT [E44M] | 2.14
28 | ELREAFRLYDKEGNGYISTDVMREILAELDETLSSEDLDAMIDYIDADGSGTVDFEEFMGVMT [E44Y] | 2.02
29 | ELREAFRLYDKEGNGYISTDVMREILAELDETLSSEDLDAMIDTIDADGSGTVDFEEFMGVMT [E44T] | 1.93
30 | ELREAFRLYDKEGNGYISTDVMREILAELDETLSSEDLDAMIDAIDADGSGTVDFEEFMGVMT [E44A] | 2.12
31 | ELREAFRLYDKEGNGYISTDVMREILAELDETLSSEDLDAMIDSIDADGSGTVDFEEFMGVMT [E44S] | 2.02
32 | ELREAFRLYDKEGNGYISTDVMREILAELDETLSSEDLDAMIDVIDADGSGTVDFEEFMGVMT [E44V] | 2.01
33 | ELREAFRLYDKEGNGYISTDVMREILAELDETLSSEDLDAMIDRIDADGSGTVDFEEFMGVMT [E44R] | 2.16
34 | ELREAFRLYDKEGNGYISTDVMREILAELDETLSSEDLDAMIDIIDADGSGTVDFEEFMGVMT [E44I] | 2.07
35 | ELREAFRLYDKEGNGYISTDVMREILAELDETLSSEDLDAMIDPIDADGSGTVDFEEFMGVMT [E44P] | 0.7
36 | ELREAFRLYDKEGNGYISTDVMREILAELDETLSSEDLDAMIDQIDADGSGTVDFEEFMGVMT [E44Q] | 2.06
37 | ELREAFRLYDKEGNGYISTDVMREILAELDETLSSEDLDAMIDEMDADGSGTVDFEEFMGVMT [I45M] | 1.93
38 | ELREAFRLYDKEGNGYISTDVMREILAELDETLSSEDLDAMIDEGDADGSGTVDFEEFMGVMT [I45G] | 0.37
39 | ELREAFRLYDKEGNGYISTDVMREILAELDETLSSEDLDAMIDEADADGSGTVDFEEFMGVMT [I45A] | 1.56
40 | ELREAFRLYDKEGNGYISTDVMREILAELDETLSSEDLDAMIDEHDADGSGTVDFEEFMGVMT [I45H] | 0.664
41 | ELREAFRLYDKEGNGYISTDVMREILAELDETLSSEDLDAMIDEFDADGSGTVDFEEFMGVMT [I45F] | 1.21
42 | ELREAFRLYDKEGNGYISTDVMREILAELDETLSSEDLDAMIDELDADGSGTVDFEEFMGVMT [I45L] | 1.74
43 | ELREAFRLYDKEGNGYISTDVMREILAELDETLSSEDLDAMIDECDADGSGTVDFEEFMGVMT [I45C] | 0.783
44 | ELREAFRLYDKEGNGYISTDVMREILAELDETLSSEDLDAMIDENDADGSGTVDFEEFMGVMT [I45N] | -0.113

Row | Variant | folding stability dG [kcal/mol]
45 | ELREAFRLYDKEGNGYISTDVMREILAELDETLSSEDLDAMIDEKDADGSGTVDFEEFMGVMT [I45K] | -0.192
46 | ELREAFRLYDKEGNGYISTDVMREILAELDETLSSEDLDAMIDEQDADGSGTVDFEEFMGVMT [I45Q] | 0.111
47 | ELREAFRLYDKEGNGYISTDVMREILAELDETLSSEDLDAMIDEPDADGSGTVDFEEFMGVMT [I45P] | -0.366
48 | ELREAFRLYDKEGNGYISTDVMREILAELDETLSSEDLDAMMDEIDADGSGTVDFEEFMGVMT [I42M] | 1.72
49 | ELREAFRLYDKEGNGYISTDVMREILAELDETLSSEDLDAMLDEIDADGSGTVDFEEFMGVMT [I42L] | 1.73
50 | ELREAFRLYDKEGNGYISTDVMREILAELDETLSSEDLDAMKDEIDADGSGTVDFEEFMGVMT [I42K] | -0.287
51 | ELREAFRLYDKEGNGYISTDVMREILAELDETLSSEDLDAMDDEIDADGSGTVDFEEFMGVMT [I42D] | -0.854
52 | ELREAFRLYDKEGNGYISTDVMREILAELDETLSSEDLDAMEDEIDADGSGTVDFEEFMGVMT [I42E] | -0.498
53 | ELREAFRLYDKEGNGYISTDVMREILAELDETLSSEDLDAMFDEIDADGSGTVDFEEFMGVMT [I42F] | 1.08
54 | ELREAFRLYDKEGNGYISTDVMREILAELDETLSSEDLDAMRDEIDADGSGTVDFEEFMGVMT [I42R] | -0.918
55 | ELREAFRLYDKEGNGYISTDVMREILAELDETLSSEDLDAMTDEIDADGSGTVDFEEFMGVMT [I42T] | 0.392
56 | ELREAFRLYDKEGNGYISTDVMREILAELDETLSSEDLDAMCDEIDADGSGTVDFEEFMGVMT [I42C] | 0.098
57 | ELREAFRLYDKEGNGYISTDVMREILAELDETLSSEDLDAMPDEIDADGSGTVDFEEFMGVMT [I42P] | -0.739
58 | ELREAFRLYDKEGNGYISTDVMREILAELDETLSSEDLDAMNDEIDADGSGTVDFEEFMGVMT [I42N] | -0.359
59 | ELREAFRLYDKEGNGYISTDVMREILAELDETLSSEDLDAMGDEIDADGSGTVDFEEFMGVMT [I42G] | -0.688
60 | ELREAFRLYDKEGNGYISTDVMREILAELDETLSSEDLDAMWDEIDADGSGTVDFEEFMGVMT [I42W] | 0.22
61 | ELREAFRLYDKEGNGYISTDVMREILAELDETLSSEDLDAMHDEIDADGSGTVDFEEFMGVMT [I42H] | -0.459
62 | ELREAFRLYDKEGNGYISTDVMREILAELDETLSSEDLDAMQDEIDADGSGTVDFEEFMGVMT [I42Q] | -0.244
63 | ELREAFRLYDKEGNGYISTDVMREILAELDETLSSEDLDAMSDEIDADGSGTVDFEEFMGVMT [I42S] | -0.099
64 | ELREAFRLYDKEGNGYISTDVMREILAELDETLSSEDLDAMADEIDADGSGTVDFEEFMGVMT [I42A] | -0.231
65 | ELREAFRLYDKEGNGYISTDVMREILAELDETLSSEDLDAMYDEIDADGSGTVDFEEFMGVMT [I42Y] | -0.094
66 | ELREAFRLYDKEGNGYISTDVMREILAELDETLSSEDLDAMVDEIDADGSGTVDFEEFMGVMT [I42V] | 1.34

Row | Variant | folding stability dG [kcal/mol]
67 | ELREAFRLYDKEGNGYISTDVMREILAELDETLSSEDLDAMIGEIDADGSGTVDFEEFMGVMT [D43G] | 1.87
68 | ELREAFRLYDKEGNGYISTDVMREILAELDETLSSEDLDAMINEIDADGSGTVDFEEFMGVMT [D43N] | 2.2
69 | ELREAFRLYDKEGNGYISTDVMREILAELDETLSSEDLDAMIKEIDADGSGTVDFEEFMGVMT [D43K] | 2.26
70 | ELREAFRLYDKEGNGYISTDVMREILAELDETLSSEDLDAMIHEIDADGSGTVDFEEFMGVMT [D43H] | 2.16
71 | ELREAFRLYDKEGNGYISTDVMREILAELDETLSSEDLDAMIAEIDADGSGTVDFEEFMGVMT [D43A] | 2.29
72 | ELREAFRLYDKEGNGYISTDVMREILAELDETLSSEDLDAMISEIDADGSGTVDFEEFMGVMT [D43S] | 2.18
73 | ELREAFRLYDKEGNGYISTDVMREILAELDETLSSEDLDAMICEIDADGSGTVDFEEFMGVMT [D43C] | 2.1
74 | ELREAFRLYDKEGNGYISTDVMREILAELDETLSSEDLDAMITEIDADGSGTVDFEEFMGVMT [D43T] | 1.89
75 | ELREAFRLYDKEGNGYISTDVMREILAELDETLSSEDLDAMIVEIDADGSGTVDFEEFMGVMT [D43V] | 1.96
76 | ELREAFRLYDKEGNGYISTDVMREILAELDETLSSEDLDAMIYEIDADGSGTVDFEEFMGVMT [D43Y] | 2.16
77 | ELREAFRLYDKEGNGYISTDVMREILAELDETLSSEDLDAMIPEIDADGSGTVDFEEFMGVMT [D43P] | 0.558
78 | ELREAFRLYDKEGNGYISTDVMREILAELDETLSSEDLDAMIIEIDADGSGTVDFEEFMGVMT [D43I] | 2.04
79 | ELREAFRLYDKEGNGYISTDVMREILAELDETLSSEDLDAMIWEIDADGSGTVDFEEFMGVMT [D43W] | 2.16
80 | ELREAFRLYDKEGNGYISTDVMREILAELDETLSSEDLDAMIQEIDADGSGTVDFEEFMGVMT [D43Q] | 2.17
81 | ELREAFRLYDKEGNGYISTDVMREILAELDETLSSEDLDAMIFEIDADGSGTVDFEEFMGVMT [D43F] | 2.13
82 | ELREAFRLYDKEGNGYISTDVMREILAELDETLSSEDLDAMILEIDADGSGTVDFEEFMGVMT [D43L] | 2.23
83 | ELREAFRLYDKEGNGYISTDVMREILAELDETLSSEDLDAMIEEIDADGSGTVDFEEFMGVMT [D43E] | 2.03
84 | ELREAFRLYDKEGNGYISTDVMREILAELDETLSSEDLDAMIMEIDADGSGTVDFEEFMGVMT [D43M] | 2.32
85 | ELREAFRLYDKEGNGYISTDVMREILAELDETLSSEDLDAMIREIDADGSGTVDFEEFMGVMT [D43R] | 2.35
